What all share (experiment): cell-based or functional assay
Assay [1] addresses T1, human GIP receptor (human) (UniProt P48546).
T1 sequence (looked up): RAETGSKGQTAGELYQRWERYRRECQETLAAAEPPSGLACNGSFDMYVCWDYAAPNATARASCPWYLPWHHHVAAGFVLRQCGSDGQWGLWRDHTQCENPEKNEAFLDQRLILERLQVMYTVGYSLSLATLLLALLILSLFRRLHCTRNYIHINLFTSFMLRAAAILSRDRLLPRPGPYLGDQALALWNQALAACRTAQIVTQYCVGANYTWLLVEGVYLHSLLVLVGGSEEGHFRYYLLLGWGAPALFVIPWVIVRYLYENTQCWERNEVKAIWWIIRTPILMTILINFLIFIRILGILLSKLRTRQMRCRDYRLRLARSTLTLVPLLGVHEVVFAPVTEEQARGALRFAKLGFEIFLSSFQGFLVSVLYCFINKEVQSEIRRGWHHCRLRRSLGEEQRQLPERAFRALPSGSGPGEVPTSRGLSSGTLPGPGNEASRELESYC

Assay [2] has as its target human GLP-1 receptor (human) (UniProt P43220).
The target of assay [3] is T2, human GLP-1 receptor (human, UniProt P43220 24-463).
Target sequence in this assay (P43220 24-463): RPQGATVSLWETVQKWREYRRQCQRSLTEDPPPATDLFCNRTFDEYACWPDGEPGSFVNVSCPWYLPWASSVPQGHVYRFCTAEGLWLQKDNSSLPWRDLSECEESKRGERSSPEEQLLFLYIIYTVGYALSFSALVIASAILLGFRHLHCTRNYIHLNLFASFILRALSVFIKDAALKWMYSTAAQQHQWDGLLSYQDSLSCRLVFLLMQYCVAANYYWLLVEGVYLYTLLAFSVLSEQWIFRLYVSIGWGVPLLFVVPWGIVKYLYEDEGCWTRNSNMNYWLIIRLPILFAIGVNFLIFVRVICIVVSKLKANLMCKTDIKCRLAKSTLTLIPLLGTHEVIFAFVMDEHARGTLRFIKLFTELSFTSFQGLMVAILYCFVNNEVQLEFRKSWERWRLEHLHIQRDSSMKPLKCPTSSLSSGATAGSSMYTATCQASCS
Assay [4] has as its target T3, human GIP receptor (human, UniProt P48546 22-466).
T3 sequence (looked up): T1 sequence (looked up)

Assay [5] concerns the target T2, human GLP-1 receptor. The source holds these as a separate data set.
In assay [6] the target is T3, human GIP receptor. The source holds these as a separate data set.
The target in assay [7] is human glucagon receptor (human, UniProt P47871 26-477).
human glucagon receptor, sequence (P47871 26-477): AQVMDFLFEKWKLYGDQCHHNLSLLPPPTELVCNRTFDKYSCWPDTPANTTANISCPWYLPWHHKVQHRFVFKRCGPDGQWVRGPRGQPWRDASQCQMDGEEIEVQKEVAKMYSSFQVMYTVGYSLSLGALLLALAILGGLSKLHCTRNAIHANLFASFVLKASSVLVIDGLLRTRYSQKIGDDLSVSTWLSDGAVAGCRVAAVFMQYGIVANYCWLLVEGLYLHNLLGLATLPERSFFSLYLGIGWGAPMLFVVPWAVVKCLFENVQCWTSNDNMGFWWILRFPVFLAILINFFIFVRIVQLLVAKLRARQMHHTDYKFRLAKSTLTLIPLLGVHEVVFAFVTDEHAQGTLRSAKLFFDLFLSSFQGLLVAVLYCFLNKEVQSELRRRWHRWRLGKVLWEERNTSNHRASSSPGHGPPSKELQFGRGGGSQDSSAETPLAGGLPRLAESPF
Assay [8] concerns the target T2, human GLP-1 receptor. The source holds these as a separate data set.
Assay [9] concerns the target T3, human GIP receptor. The source holds these as a separate data set.

Like-named read-outs stand apart in the source and are kept apart here. *1 amine or outer side, *2 acyl side, *3 side chain or, on linkers, in order; H or OH if unused. Where no end group is shown, it is not given here. Side-chain parts run from the residue outwards. [ ]: non-standard residue; d: D form. The star is where a group is joined. γGlu = O=C(O)[C@H](CCC(=O)[*:2])N[*:1]; Palmitoyl = CCCCCCCCCCCCCCCC(=O)*; Nle = CCCC[C@H](N)C(=O)O; Aib = CC(C)(N)C(=O)O

human GLP-1 receptor (human), sequence (P43220 24-463): as the sequence (P43220 24-463) above

Regarding Tyr(1)Ile(12)-exendin-4 (peptide), the EC50 hGIP R [pM] in assay [1] amounted to 93.9 pM. In addition, the EC50 hGLP-1 R [pM] in assay [2] amounted to 1.3 pM.

Tyr(1)Ile(12)-GLP1 (peptide): the EC50 hGLP-1 R [pM] in assay [3] is 5 pM. Besides, the EC50 hGIP R [pM] in assay [4] amounted to 3660 pM.

As usually defined, the EC50 is the concentration that produces a half-maximal response. Read a high EC50 as a less potent agent. The molecule “natural GIP (glucose-dependent insulinotropic polypeptide) (from UniProt P09681 52-93) (ligand)” gave an EC50 in [1] of 0.4 pM.

B1: SEQ ID NO: 32 (peptide)
peptide: Y[Aib]QGTFTSDLSIQK([γGlu-Palmitoyl])ESRAAQDFIEWLKAGGPSSGAPPPS-NH2
modifications: N-terminus assumed
SMILES: CCCCCCCCCCCCCCCC(=O)N[C@@H](CCC(=O)NCCCC[C@H](NC(=O)[C@H](CCC(N)=O)NC(=O)[C@@H](NC(=O)[C@H](CO)NC(=O)[C@H](CC(C)C)NC(=O)[C@H](CC(=O)O)NC(=O)[C@H](CO)NC(=O)[C@@H](NC(=O)[C@H](Cc1ccccc1)NC(=O)[C@@H](NC(=O)CNC(=O)[C@H](CCC(N)=O)NC(=O)C(C)(C)NC(=O)[C@@H](N)Cc1ccc(O)cc1)[C@@H](C)O)[C@@H](C)O)[C@@H](C)CC)C(=O)N[C@@H](CCC(=O)O)C(=O)N[C@@H](CO)C(=O)N[C@@H](CCCNC(=N)N)C(=O)N[C@@H](C)C(=O)N[C@@H](C)C(=O)N[C@@H](CCC(N)=O)C(=O)N[C@@H](CC(=O)O)C(=O)N[C@@H](Cc1ccccc1)C(=O)N[C@H](C(=O)N[C@@H](CCC(=O)O)C(=O)N[C@@H](Cc1c[nH]c2ccccc12)C(=O)N[C@@H](CC(C)C)C(=O)N[C@@H](CCCCN)C(=O)N[C@@H](C)C(=O)NCC(=O)NCC(=O)N1CCC[C@H]1C(=O)N[C@@H](CO)C(=O)N[C@@H](CO)C(=O)NCC(=O)N[C@@H](C)C(=O)N1CCC[C@H]1C(=O)N1CCC[C@H]1C(=O)N1CCC[C@H]1C(=O)N[C@@H](CO)C(N)=O)[C@@H](C)CC)C(=O)O
For the molecule B1, the “EC50 hGLP-1 R [pM]” value in assay [5] and in [8] was 8.4 pM in each case. Besides, the “EC50 hGIP R [pM]” value in assay [6] and in [9] was 7.1 pM each time. Also, in assay [7], the “EC50 hGLUC R [pM]” value turned out to be 82.6 pM.

B2: SEQ ID NO: 37 (peptide)
peptide: Y[Aib]QGTFTSDLSIQK([γGlu-Palmitoyl])DSRAAQDFIEWLKAGGPSSGAPPPS-NH2
modifications: N-terminus assumed
SMILES: CCCCCCCCCCCCCCCC(=O)N[C@@H](CCC(=O)NCCCC[C@H](NC(=O)[C@H](CCC(N)=O)NC(=O)[C@@H](NC(=O)[C@H](CO)NC(=O)[C@H](CC(C)C)NC(=O)[C@H](CC(=O)O)NC(=O)[C@H](CO)NC(=O)[C@@H](NC(=O)[C@H](Cc1ccccc1)NC(=O)[C@@H](NC(=O)CNC(=O)[C@H](CCC(N)=O)NC(=O)C(C)(C)NC(=O)[C@@H](N)Cc1ccc(O)cc1)[C@@H](C)O)[C@@H](C)O)[C@@H](C)CC)C(=O)N[C@@H](CC(=O)O)C(=O)N[C@@H](CO)C(=O)N[C@@H](CCCNC(=N)N)C(=O)N[C@@H](C)C(=O)N[C@@H](C)C(=O)N[C@@H](CCC(N)=O)C(=O)N[C@@H](CC(=O)O)C(=O)N[C@@H](Cc1ccccc1)C(=O)N[C@H](C(=O)N[C@@H](CCC(=O)O)C(=O)N[C@@H](Cc1c[nH]c2ccccc12)C(=O)N[C@@H](CC(C)C)C(=O)N[C@@H](CCCCN)C(=O)N[C@@H](C)C(=O)NCC(=O)NCC(=O)N1CCC[C@H]1C(=O)N[C@@H](CO)C(=O)N[C@@H](CO)C(=O)NCC(=O)N[C@@H](C)C(=O)N1CCC[C@H]1C(=O)N1CCC[C@H]1C(=O)N1CCC[C@H]1C(=O)N[C@@H](CO)C(N)=O)[C@@H](C)CC)C(=O)O
Turning to B2, the “EC50 hGLP-1 R [pM]” value in [5] was 8.9 pM. Further, the “EC50 hGIP R [pM]” value in assay [6] turned out to be 21.2 pM. Moreover, in assay [7], the “EC50 hGLUC R [pM]” value worked out at 32 pM.

B3: SEQ ID NO: 41 (peptide)
peptide: Y[Aib]EGTFTSDLSIQ[Nle]EKRAA[Aib]EFIEWLKNTGPSSGAPPPS-NH2
modifications: N-terminus assumed
SMILES: CCCC[C@H](NC(=O)[C@H](CCC(N)=O)NC(=O)[C@@H](NC(=O)[C@H](CO)NC(=O)[C@H](CC(C)C)NC(=O)[C@H](CC(=O)O)NC(=O)[C@H](CO)NC(=O)[C@@H](NC(=O)[C@H](Cc1ccccc1)NC(=O)[C@@H](NC(=O)CNC(=O)[C@H](CCC(=O)O)NC(=O)C(C)(C)NC(=O)[C@@H](N)Cc1ccc(O)cc1)[C@@H](C)O)[C@@H](C)O)[C@@H](C)CC)C(=O)N[C@@H](CCC(=O)O)C(=O)N[C@@H](CCCCN)C(=O)N[C@@H](CCCNC(=N)N)C(=O)N[C@@H](C)C(=O)N[C@@H](C)C(=O)NC(C)(C)C(=O)N[C@@H](CCC(=O)O)C(=O)N[C@@H](Cc1ccccc1)C(=O)N[C@H](C(=O)N[C@@H](CCC(=O)O)C(=O)N[C@@H](Cc1c[nH]c2ccccc12)C(=O)N[C@@H](CC(C)C)C(=O)N[C@@H](CCCCN)C(=O)N[C@@H](CC(N)=O)C(=O)N[C@H](C(=O)NCC(=O)N1CCC[C@H]1C(=O)N[C@@H](CO)C(=O)N[C@@H](CO)C(=O)NCC(=O)N[C@@H](C)C(=O)N1CCC[C@H]1C(=O)N1CCC[C@H]1C(=O)N1CCC[C@H]1C(=O)N[C@@H](CO)C(N)=O)[C@@H](C)O)[C@@H](C)CC
As to B3, in assay [8], the “EC50 hGLP-1 R [pM]” value stood at 11.2 pM. Also, in assay [9], the “EC50 hGIP R [pM]” value is 449 pM.

B4: SEQ ID NO: 9 (peptide)
peptide: Y[Aib]EGTFTSDLSIQK([γGlu-Palmitoyl])EKRAA[Aib]EFIEWLKNTGPSSGAPPPS-NH2
modifications: N-terminus assumed
SMILES: CCCCCCCCCCCCCCCC(=O)N[C@@H](CCC(=O)NCCCC[C@H](NC(=O)[C@H](CCC(N)=O)NC(=O)[C@@H](NC(=O)[C@H](CO)NC(=O)[C@H](CC(C)C)NC(=O)[C@H](CC(=O)O)NC(=O)[C@H](CO)NC(=O)[C@@H](NC(=O)[C@H](Cc1ccccc1)NC(=O)[C@@H](NC(=O)CNC(=O)[C@H](CCC(=O)O)NC(=O)C(C)(C)NC(=O)[C@@H](N)Cc1ccc(O)cc1)[C@@H](C)O)[C@@H](C)O)[C@@H](C)CC)C(=O)N[C@@H](CCC(=O)O)C(=O)N[C@@H](CCCCN)C(=O)N[C@@H](CCCNC(=N)N)C(=O)N[C@@H](C)C(=O)N[C@@H](C)C(=O)NC(C)(C)C(=O)N[C@@H](CCC(=O)O)C(=O)N[C@@H](Cc1ccccc1)C(=O)N[C@H](C(=O)N[C@@H](CCC(=O)O)C(=O)N[C@@H](Cc1c[nH]c2ccccc12)C(=O)N[C@@H](CC(C)C)C(=O)N[C@@H](CCCCN)C(=O)N[C@@H](CC(N)=O)C(=O)N[C@H](C(=O)NCC(=O)N1CCC[C@H]1C(=O)N[C@@H](CO)C(=O)N[C@@H](CO)C(=O)NCC(=O)N[C@@H](C)C(=O)N1CCC[C@H]1C(=O)N1CCC[C@H]1C(=O)N1CCC[C@H]1C(=O)N[C@@H](CO)C(N)=O)[C@@H](C)O)[C@@H](C)CC)C(=O)O
In the case of B4, the “EC50 hGLP-1 R [pM]” value in assay [5] and in [8] was 3.6 pM in each case. In addition, the “EC50 hGIP R [pM]” value in assay [6] and in [9] was 5.7 pM each time. In addition, the “EC50 hGLUC R [pM]” value in assay [7] came to 7710 pM.

B5: SEQ ID NO: 40 (peptide)
peptide: Y[Aib]QGTFTSDLSIQLESRAAQDFIEWLKAGGPSSGAPPPS-NH2
modifications: N-terminus assumed
SMILES: CC[C@H](C)[C@H](NC(=O)[C@H](Cc1ccccc1)NC(=O)[C@H](CC(=O)O)NC(=O)[C@H](CCC(N)=O)NC(=O)[C@H](C)NC(=O)[C@H](C)NC(=O)[C@H](CCCNC(=N)N)NC(=O)[C@H](CO)NC(=O)[C@H](CCC(=O)O)NC(=O)[C@H](CC(C)C)NC(=O)[C@H](CCC(N)=O)NC(=O)[C@@H](NC(=O)[C@H](CO)NC(=O)[C@H](CC(C)C)NC(=O)[C@H](CC(=O)O)NC(=O)[C@H](CO)NC(=O)[C@@H](NC(=O)[C@H](Cc1ccccc1)NC(=O)[C@@H](NC(=O)CNC(=O)[C@H](CCC(N)=O)NC(=O)C(C)(C)NC(=O)[C@@H](N)Cc1ccc(O)cc1)[C@@H](C)O)[C@@H](C)O)[C@@H](C)CC)C(=O)N[C@@H](CCC(=O)O)C(=O)N[C@@H](Cc1c[nH]c2ccccc12)C(=O)N[C@@H](CC(C)C)C(=O)N[C@@H](CCCCN)C(=O)N[C@@H](C)C(=O)NCC(=O)NCC(=O)N1CCC[C@H]1C(=O)N[C@@H](CO)C(=O)N[C@@H](CO)C(=O)NCC(=O)N[C@@H](C)C(=O)N1CCC[C@H]1C(=O)N1CCC[C@H]1C(=O)N1CCC[C@H]1C(=O)N[C@@H](CO)C(N)=O
On to B5, for which, in [8], the “EC50 hGLP-1 R [pM]” value worked out at 3.2 pM. In assay [9], the “EC50 hGIP R [pM]” value amounted to 858 pM.

Values taken from US20140206609A1 (Sanofi, published 2014).
